Residue numbers refer to the chain shown, from its start.
T1: human IL-2Rα (human, UniProt P01589 22-240, limits assumed)
T1 construct: recombinant protein; also called hu IL-2R; human IL-2Ra
T1 sequence: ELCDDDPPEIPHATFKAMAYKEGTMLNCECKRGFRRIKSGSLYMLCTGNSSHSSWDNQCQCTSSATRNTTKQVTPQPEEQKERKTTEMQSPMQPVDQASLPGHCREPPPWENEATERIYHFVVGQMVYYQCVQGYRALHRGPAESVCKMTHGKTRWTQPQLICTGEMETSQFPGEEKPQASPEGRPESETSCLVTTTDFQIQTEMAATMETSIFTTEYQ

T2: mouse IL-2Rα (mouse, UniProt P01590 22-236, limits assumed)
T2 construct: recombinant protein; also called mo IL-2R; mouse IL-2Ra
T2 sequence (looked up): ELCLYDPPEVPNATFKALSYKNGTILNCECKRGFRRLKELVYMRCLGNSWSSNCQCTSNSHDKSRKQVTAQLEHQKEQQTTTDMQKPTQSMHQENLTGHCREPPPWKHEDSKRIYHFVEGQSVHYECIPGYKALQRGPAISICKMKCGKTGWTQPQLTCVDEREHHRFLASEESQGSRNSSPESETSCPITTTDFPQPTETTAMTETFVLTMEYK

B1: FJ1427_P035MP01C11 (VHH)
VHH: QVQLVESGGGLVQAGGSLRLSCAASGGTFRTRNMGWFRRAPGKEREFVAAVSWNVDNKLYAGSVKGRFTISRDNGRNMVYLQMNSLKPEDTAVYYCAADNIPLSSDMRPTATEYDYWGQGTQVTVSS
notes: periplasmic extract; also called clone nr; 83
B2: FJ1427_P035MP05H09 (VHH)
VHH: QLQLVESGGDLVQPGGSLRLSCTASGLTFDGYAIGWFRQAPGKEREGVSYITGSNGSTYYIDSVKGRFTISSDIAKSTVYLQMNTLKPEDTAVYYCAVDRLGSRGLYASSWWRSGDMDLWGKGTLVTVSS
notes: periplasmic extract; also called clone nr
B3: FJ1427_P035MP05B05 (VHH)
VHH: EVQLVESGGGLVQAGGSLRLSCAASGFTFDGYAVGWFRQAPGKEPEGVSYITGSDGVTYYIDSVKGRFTISSDNAKRTVYLQMNTLKPEDTAVYYCAVDRLGSQGRYASSWWRAGDMDFWGKGTLVTVSS
notes: as for B2
B4: FJ1427_P035MP05A05 (VHH)
VHH: QLQLVESGGGLVQAGGSLRLSCAASGLTFDGYAIGWFRQASGKEREGVSYINGRDGSTFYADSVKGRFIISSDNAKNTVDLQMNSLKPDDAAVYYCAVDRLGSRGAYVSTWWRPPDMDLWGKGTLVTVSP
notes: periplasmic extract; also called clone nr; 417
B5: FJ1427_P035MP05H08 (VHH)
VHH: B4 VHH with P114S, P130S
notes: as for B2
B6: FJ1427_P035MP05C06 (VHH)
VHH: B4 VHH with L2V, A61T, T110S, P114S, P130S
notes: as for B2
B7: FJ1427_P035MP05D04 (VHH)
VHH: B4 VHH with K87N, T110S, P114S, P130S
notes: as for B2
B8: FJ1427_P035MP05C09 (VHH)
VHH: QLQLVESGGGLVQAGGSLRLSCAASGFTFDGYAIGWFRQAPGKEREGVSYITGSDGSTYYADSVKGRFTISSNNAKNTVYLHMNSLKPDDAAVYYCAIDRLGSRGAYVPIWWRSSDMDLWGKGTLVTVSS
notes: as for B2
B9: 12-MP05B12 (VHH)
VHH: B8 VHH with L2V
notes: periplasmic extract; also called FJ1427_P035MP05B12
B10: FJ1427_P035MP05B08 (VHH)
VHH: QLQLVESGGGLVQAGGSLRLSCVAHGLTFDGYAIGWFRQAPGKELEGVSYITGSDGSRYYADSVKGRFTISSDVAKNTVYLHMNNLKPDDAARYYCAVDRLGSRGAYVSAWWRSSDMDLWGKGTLVTVSS
notes: as for B2
B11: FJ1427_P035MP05C10 (VHH)
VHH: B8 VHH with A14T, A23S, A24T, R45P, N73D, R104G
notes: as for B2

What was measured:
[1] = target: T1, human IL-2Rα; test: ELISA, P.E. on coated antigen
How it was run: (§1)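 Plates were coated overnight at 4° C with human or mouse IL-2R chain protein, and free sites blocked for 1 hour in 4% Marvel in PBS. Periplasmic extracts diluted 1:5 in 1% Marvel/PBS then bound for 1 hour, with specificity assessed from 450 nm absorbance relative to negative controls.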

[2] = target: T2, mouse IL-2Rα; test: ELISA, P.E. on coated antigen
How it was run: as §1

[3] = target: T1, human IL-2Rα; test: SPR, P.E. on immobilised antigen
How it was run: (§2)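 CM5 chip, amine coupling (acetate buffer), ~2500 RU receptor. VHH P.E. flowed at 30 uL/min; off-rate read over 120 s.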

[4] = target: T2, mouse IL-2Rα; test: SPR, P.E. on immobilised antigen
How it was run: as §2

Binder | OD (PE binding ELISA) [1] [OD450 nm] | OD (PE binding ELISA) [2] [OD450 nm] | koff [3] [s⁻¹] | koff [4] [s⁻¹]
B1 | 2.78 | 0.045 | 0.000556 | 0.351
B2 | 2.26 | 0.154 | 0.00105 | 0.00244
B3 | 2.15 | 0.045 | 0.00103 | 0.0114
B4 | 1.86 | 0.052 | 0.00341 | 0.0172
B5 | 2.17 | 0.05 | 0.00278 | 0.0129
B6 | 2.43 | 0.071 | 0.000659 | 0.00311
B7 | 1.91 | 0.045 | 0.00224 | 0.0122
B8 | 0.366 | 0.059 | 0.00609 | 0.00435
B9 | 2.14 | 0.936 | 0.000222 | 0.000547
B10 | 1.88 | 0.057 | 0.00253 | 0.00608
B11 | 0.63 | 0.071 | 0.00406 | 0.00403
